Results on one protein are retold here after paper PMC11260447, “OptoLacI: optogenetically engineered lactose operon repressor LacI responsive to light instead of IPTG” (Nucleic Acids Research, 2024).

This series deals with the molecule itself. Kind of series: SEC; purified protein incubated 1 hour in the dark, then Superdex 200 Increase 10/300 GL under dark condition; 20 mM Hepes pH 7.5, 200 mM NaCl. (In general: SEC sorts molecules by how far they enter the pores of the column.)

B1: OptoLacI^L (LacI^(W220F, 311-LOV2)) (other, E. coli | Avena sativa, UniProt P03023 1-311, looked up)
chain: MKPVTLYDVAEYAGVSYQTVSRVVNQASHVSAKTREKVEAAMAELNYIPNRVAQQLAGKQSLLIGVATSSLALHAPSQIVAAIKSRADQLGASVVVSMVERSGVEACKAAVHNLLAQRVSGLIINYPLDDQDAIAVEAACTNVPALFLDVSDQTPINSIIFSHEDGTRLGVEHLVALGHQQIALLAGPLSSVSARLRLAGWHKYLTRNQIQPIAEREGDFSAMSGFQQTMQMLNEGIVPTAMLVANDQMALGAMRAITESGLRVGADISVVGYDDTEDSSCYIPPLTTIKQDFRLLGQTSVDRLLQLSQGQLERIEKNFVITDPRLPDNPIIFASDSFLQLTEYSREEILGRNCRFLQGPETDRATVRKIRDAIDNQTEVTVQLINYTKSGKKFWNLFHLQPMRDQKGDVQYFIGVQLDGTEHVRDAAEREGVMLIKKTAENIDEAAAVKGNQLLPVSLVKRKTTLAPNTQTASPRALADSLMQLARQVSRLESGQ
notes: LOV2 domain of Avena sativa phototropin 1 (AsLOV2), residues 408-543; source: E. coli BL21 (DE3), plasmid pML364, purified (Ni-NTA twice, size exclusion chromatography)
With B1, the binding result is “binds”.
